B1: TaPOR1 (Triticum aestivum) (protein)
chain: GVVVITGASSGLGLAAAKALAETGKWHVVMACRDFLKASKAAKAAGMADGSYTVMHLDLASLDSVRQFVDAFRRAEMPLDVLVCNAAIYRPTARTPTFTADGHEMSVGVNHLGHFLLARLLMEDLQKSDYPSRRMVIVGSITGNSNTLAGNVPPKASLGDLRGLAGGLSGASGSAMIDGDESFDGAKAYKDSKVCNMLTMQEFHRRYHEETGITFSSLYPGCIATTGLFREHIPLFRTLFPPFQKFVTKGFVSEAESGKRLAQVVAEPSLTKSGVYWSWNKDSASFENQLSQEASDPEKARKVWELSEKLVGLA
B2: SynPOR (Synechocystis sp. PCC 6803 substr. Kazusa) (protein)
chain: MEQPMKPTVIITGASSGVGLYGAKALIDKGWHVIMACRNLDKTQKVADELGFPKDSYTIIKLDLGYLDSVRRFVAQFRELGRPLKALVCNAAVYFPLLDEPLWSADDYELSVATNHLGHFLLCNLLLEDLKACPDADKRLIILGTVTANSKELGGKIPIPAPPDLGNFEGFEAGFKKPIAMINNKKFKSGKAYKDSKLCNMLTTRELHRRFHQETGIVFNSLYPGCVADTPLFRNHYSLFRTIFPWFQKNVTKGYVSQELAGERVAMVVADDKFKDSGVHWSWGNRQQAGREAFVQELSEQGSDAQKAQRMWDLSEKLVGLV
B3: AtPORB (Arabidopsis thaliana) (protein)
chain: QTAATSSPTVTKSVDGKKTLRKGNVVVTGASSGLGLATAKALAETGKWNVIMACRDFLKAERAAKSVGMPKDSYTVMHLDLASLDSVRQFVDNFRRTETPLDVLVCNAAVYFPTAKEPTYSAEGFELSVATNHLGHFLLARLLLDDLKKSDYPSKRLIIVGSITGNTNTLAGNVPPKANLGDLRGLAGGLNGLNSSAMIDGGDFDGAKAYKDSKVCNMLTMQEFHRRFHEETGVTFASLYPGCIASTGLFREHIPLFRALFPPFQKYITKGYVSETESGKRLAQVVSDPSLTKSGVYWSWNNASASFENQLSEEASDVEKARKVWEISEKLVGLA
B4: AtPORA (Arabidopsis thaliana) (protein)
chain: QAIATSTPSVTKSSLDRKKTLRKGNVVVTGASSGLGLATAKALAETGKWHVIMACRDFLKAERAAQSAGMPKDSYTVMHLDLASLDSVRQFVDNFRRAEMPLDVLVCNAAVYQPTANQPTFTAEGFELSVGINHLGHFLLSRLLIDDLKNSDYPSKRLIIVGSITGNTNTLAGNVPPKANLGDLRGLAGGLNGLNSSAMIDGGDFVGAKAYKDSKVCNMLTMQEFHRRFHEDTGITFASLYPGCIATTGLFREHIPLFRTLFPPFQKYITKGYVSESEAGKRLAQVVADPSLTKSGVYWSWNKTSASFENQLSQEASDVEKARRVWEVSEKLVGLA
B5: AtPORC (Arabidopsis thaliana) (protein)
chain: QTVTATPPANEASPEQKKTERKGTAVITGASSGLGLATAKALADTGKWHVIMACRNFLKAEKAARSVGMSKEDYTVMHLDLASLESVKQFVENFRRTEQPLDVLVCNAAVYQPTAKEPSFTAEGFEISVGTNHLGHFLLSRLLLDDLKKSDYPSKRMIIVGSITGNTNTLAGNVPPKANLGDLRGLASGLNGQNSSMIDGGEFDGAKAYKDSKVCNMLTMQELHRRYHEETGVTFASLYPGCIATTGLFREHIPLFRLLFPPFQKYITKGYVSEEEAGKRLAQVVSDPSLGKSGVYWSWNNNSSSFENQLSKEASDAEKAKKLWEVSEKLVGLA
B6: AtPORB (Arabidopsis thaliana; S312E) (protein)
chain: QTAATSSPTVTKSVDGKKTLRKGNVVVTGASSGLGLATAKALAETGKWNVIMACRDFLKAERAAKSVGMPKDSYTVMHLDLASLDSVRQFVDNFRRTETPLDVLVCNAAVYFPTAKEPTYSAEGFELSVATNHLGHFLLARLLLDDLKKSDYPSKRLIIVGSITGNTNTLAGNVPPKANLGDLRGLAGGLNGLNSSAMIDGGDFDGAKAYKDSKVCNMLTMQEFHRRFHEETGVTFASLYPGCIAETGLFREHIPLFRALFPPFQKYITKGYVSETESGKRLAQVVSDPSLTKSGVYWSWNNASASFENQLSEEASDVEKARKVWEISEKLVGLA

Each protein was assayed on NC(=O)C1=CN([C@@H]2O[C@H](COP(=O)(O)OP(=O)(O)OC[C@H]3O[C@@H](n4cnc5c(N)ncnc54)[C@H](OP(=O)(O)O)[C@@H]3O)[C@@H](O)[C@H]2O)C=CC1 (assay: purified protein, by the assay type). Conditions: not given.

Compared with B1, B2 is 3.1-fold lower in Km: 39.67 µM for the first, 12.85 µM for the second.

Going from B3 to B4, the Km rises from 1.27 µM to 2.47 µM (1.9-fold).

For B5, the Km was 0.73 µM.

The proteins below were run on NC(=O)C1=CN([C@@H]2O[C@H](COP(=O)(O)OP(=O)(O)OC[C@H]3O[C@@H](n4cnc5c(N)ncnc54)[C@H](OP(=O)(O)O)[C@@H]3O)[C@@H](O)[C@H]2O)C=CC1 (assay: purified protein). Conditions: pH 7.1.

Protein B6 has a Km of 14.4 ± 1.66 µM.
